{"source": "paper PMC7865317", "about": "“Coupling of a Novel TIMP3 Peptide to Carboxypeptidase G2 for Pro-Drug Activation at the Tumour Site” (Molecules, 2021)", "molecular_target": "T1, VEGFR2-immunoglobulin Fc fusion protein (UniProt P35968 20-764)", "T1 construct": "VEGFR2 (vascular endothelial growth factor receptor 2); Probably the extracellular domain of VEGFR2 fused to an IgG Fc, as sold by R&D Systems (surmise); also called VEGFR2-Fc; source: bought: R&D Systems", "T1 sequence (P35968 20-764)": "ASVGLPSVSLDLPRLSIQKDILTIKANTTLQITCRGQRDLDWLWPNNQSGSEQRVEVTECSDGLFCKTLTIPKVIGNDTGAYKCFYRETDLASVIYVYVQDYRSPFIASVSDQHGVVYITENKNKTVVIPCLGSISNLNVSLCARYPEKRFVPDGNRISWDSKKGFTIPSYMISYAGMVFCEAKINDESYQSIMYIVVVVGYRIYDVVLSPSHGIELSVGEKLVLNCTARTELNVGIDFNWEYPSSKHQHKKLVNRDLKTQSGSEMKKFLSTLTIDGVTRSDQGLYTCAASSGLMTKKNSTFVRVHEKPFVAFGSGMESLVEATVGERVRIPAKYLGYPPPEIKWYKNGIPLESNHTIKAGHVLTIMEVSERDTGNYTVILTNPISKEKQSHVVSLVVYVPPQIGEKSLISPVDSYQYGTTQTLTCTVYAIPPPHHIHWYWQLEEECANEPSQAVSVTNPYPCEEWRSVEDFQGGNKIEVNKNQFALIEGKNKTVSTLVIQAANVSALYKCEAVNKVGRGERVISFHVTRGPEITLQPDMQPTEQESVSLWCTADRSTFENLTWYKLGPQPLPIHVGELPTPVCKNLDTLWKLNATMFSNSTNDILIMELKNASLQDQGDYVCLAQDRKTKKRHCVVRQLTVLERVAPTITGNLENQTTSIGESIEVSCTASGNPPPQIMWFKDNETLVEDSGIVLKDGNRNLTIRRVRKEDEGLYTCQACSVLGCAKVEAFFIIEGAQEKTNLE", "test": "BLI; BLItz system; VEGFR2-Fc (5 uL at 250 ug/mL) loaded on protein A-coated probes for 300 s; CPG2 or CPG2-p700 in the drop holder, five runs at 600 nM to 10 uM; PBS", "conditions": "both partners purified"}
{"binder": "recombinant codon-optimised carboxypeptidase G2 (CPG2-His) (enzyme, Pseudomonas aeruginosa strain RS-16, UniProt P06621 23-415, looked up, carboxypeptidase G2 (CPG2, glucarpidase), gene codon optimised for E. coli (Goda et al. 2009), approximately 1200 bp; Expected size 45 kDa; Cloned NdeI/NotI into pET28a, which may add an N-terminal His tag from the vector (surmise); construct in Supplementary Data S1; also called CPG2 alone; CPG2-only; source: E. coli BL21 (DE3), purified by Ni2+-NTA chromatography from pooled 2 M urea washes of …) ALAQKRDNVLFQAATDEQPAVIKTLEKLVNIETGTGDAEGIAAAGNFLEAELKNLGFTVTRSKSAGLVVGDNIVGKIKGRGGKNLLLMSHMDTVYLKGILAKAPFRVEGDKAYGPGIADDKGGNAVILHTLKLLKEYGVRDYGTITVLFNTDEEKGSFGSRDLIQEEAKLADYVLSFEPTSAGDEKLSLGTSGIAYVQVNITGKASHAGAAPELGVNALVEASDLVLRTMNIDDKAKNLRFNWTIAKAGNVSNIIPASATLNADVRYARNEDFDAAMKTLEERAQQKKLPEADVKVIVTRGRPAFNAGEGGKKLVDKAVAYYKEAGGTLGVEERTGGGTDAAYAALSGKPVIESLGLPGFGYHSDKAEYVDISAIPRRLYMAARLIMDLGAGK", "values": [{"measurement": "Kd", "value": 15, "unit": "µM"}]}
